First the molecules themselves.
B1: corin: N567Q (protein)
parent chain: MKQSPALAPEERCRRAGSPKPVLRADDNNMGNGCSQKLATANLLRFLLLVLIPCICALVLLLVILLSYVGTLQKVYFKSNGSEPLVTDGEIQGSDVILTNTIYNQSTVVSTAHPDQHVPAWTTDASLPGDQSHRNTSACMNITHSQCQMLPYHATLTPLLSVVRNMEMEKFLKFFTYLHRLSCYQHIMLFGCTLAFPECIIDGDDSHGLLPCRSFCEAAKEGCESVLGMVNYSWPDFLRCSQFRNQTESSNVSRICFSPQQENGKQLLCGRGENFLCASGICIPGKLQCNGYNDCDDWSDEAHCNCSENLFHCHTGKCLNYSLVCDGYDDCGDLSDEQNCDCNPTTEHRCGDGRCIAMEWVCDGDHDCVDKSDEVNCSCHSQGLVECRNGQCIPSTFQCDGDEDCKDGSDEENCSVIQTSCQEGDQRCLYNPCLDSCGGSSLCDPNNSLNNCSQCEPITLELCMNLPYNSTSYPNYFGHRTQKEASISWESSLFPALVQTNCYKYLMFFSCTILVPKCDVNTGEHIPPCRALCEHSKERCESVLGIVGLQWPEDTDCSQFPEENSDNQTCLMPDEYVEECSPSHFKCRSGQCVLASRRCDGQADCDDDSDEENCGCKERDLWECPSNKQCLKHTVICDGFPDCPDYMDEKNCSFCQDDELECANHACVSRDLWCDGEADCSDSSDEWDCVTLSINVNSSSFLMVHRAATEHHVCADGWQEILSQLACKQMGLGEPSVTKLIQEQEKEPRWLTLHSNWESLNGTTLHELLVNGQSCESRSKISLLCTKQDCGRRPAARMNKRILGGRTSRPGRWPWQCSLQSEPSGHICGCVLIAKKWVLTVAHCFEGRENAAVWKVVLGINNLDHPSVFMQTRFVKTIILHPRYSRAVVDYDISIVELSEDISETGYVRPVCLPNPEQWLEPDTYCYITGWGHMGNKMPFKLQEGEVRIISLEHCQSYFDMKTITTRMICAGYESGTVDSCMGDSGGPLVCEKPGGRWTLFGLTSWGSVCFSKVLGPGVYSNVSYFVEWIKRQIYIQTFLLN
B2: corin: N697Q (protein)
parent chain: MKQSPALAPEERCRRAGSPKPVLRADDNNMGNGCSQKLATANLLRFLLLVLIPCICALVLLLVILLSYVGTLQKVYFKSNGSEPLVTDGEIQGSDVILTNTIYNQSTVVSTAHPDQHVPAWTTDASLPGDQSHRNTSACMNITHSQCQMLPYHATLTPLLSVVRNMEMEKFLKFFTYLHRLSCYQHIMLFGCTLAFPECIIDGDDSHGLLPCRSFCEAAKEGCESVLGMVNYSWPDFLRCSQFRNQTESSNVSRICFSPQQENGKQLLCGRGENFLCASGICIPGKLQCNGYNDCDDWSDEAHCNCSENLFHCHTGKCLNYSLVCDGYDDCGDLSDEQNCDCNPTTEHRCGDGRCIAMEWVCDGDHDCVDKSDEVNCSCHSQGLVECRNGQCIPSTFQCDGDEDCKDGSDEENCSVIQTSCQEGDQRCLYNPCLDSCGGSSLCDPNNSLNNCSQCEPITLELCMNLPYNSTSYPNYFGHRTQKEASISWESSLFPALVQTNCYKYLMFFSCTILVPKCDVNTGEHIPPCRALCEHSKERCESVLGIVGLQWPEDTDCSQFPEENSDNQTCLMPDEYVEECSPSHFKCRSGQCVLASRRCDGQADCDDDSDEENCGCKERDLWECPSNKQCLKHTVICDGFPDCPDYMDEKNCSFCQDDELECANHACVSRDLWCDGEADCSDSSDEWDCVTLSINVNSSSFLMVHRAATEHHVCADGWQEILSQLACKQMGLGEPSVTKLIQEQEKEPRWLTLHSNWESLNGTTLHELLVNGQSCESRSKISLLCTKQDCGRRPAARMNKRILGGRTSRPGRWPWQCSLQSEPSGHICGCVLIAKKWVLTVAHCFEGRENAAVWKVVLGINNLDHPSVFMQTRFVKTIILHPRYSRAVVDYDISIVELSEDISETGYVRPVCLPNPEQWLEPDTYCYITGWGHMGNKMPFKLQEGEVRIISLEHCQSYFDMKTITTRMICAGYESGTVDSCMGDSGGPLVCEKPGGRWTLFGLTSWGSVCFSKVLGPGVYSNVSYFVEWIKRQIYIQTFLLN
B3: corin: N761Q (protein)
parent chain: MKQSPALAPEERCRRAGSPKPVLRADDNNMGNGCSQKLATANLLRFLLLVLIPCICALVLLLVILLSYVGTLQKVYFKSNGSEPLVTDGEIQGSDVILTNTIYNQSTVVSTAHPDQHVPAWTTDASLPGDQSHRNTSACMNITHSQCQMLPYHATLTPLLSVVRNMEMEKFLKFFTYLHRLSCYQHIMLFGCTLAFPECIIDGDDSHGLLPCRSFCEAAKEGCESVLGMVNYSWPDFLRCSQFRNQTESSNVSRICFSPQQENGKQLLCGRGENFLCASGICIPGKLQCNGYNDCDDWSDEAHCNCSENLFHCHTGKCLNYSLVCDGYDDCGDLSDEQNCDCNPTTEHRCGDGRCIAMEWVCDGDHDCVDKSDEVNCSCHSQGLVECRNGQCIPSTFQCDGDEDCKDGSDEENCSVIQTSCQEGDQRCLYNPCLDSCGGSSLCDPNNSLNNCSQCEPITLELCMNLPYNSTSYPNYFGHRTQKEASISWESSLFPALVQTNCYKYLMFFSCTILVPKCDVNTGEHIPPCRALCEHSKERCESVLGIVGLQWPEDTDCSQFPEENSDNQTCLMPDEYVEECSPSHFKCRSGQCVLASRRCDGQADCDDDSDEENCGCKERDLWECPSNKQCLKHTVICDGFPDCPDYMDEKNCSFCQDDELECANHACVSRDLWCDGEADCSDSSDEWDCVTLSINVNSSSFLMVHRAATEHHVCADGWQEILSQLACKQMGLGEPSVTKLIQEQEKEPRWLTLHSNWESLNGTTLHELLVNGQSCESRSKISLLCTKQDCGRRPAARMNKRILGGRTSRPGRWPWQCSLQSEPSGHICGCVLIAKKWVLTVAHCFEGRENAAVWKVVLGINNLDHPSVFMQTRFVKTIILHPRYSRAVVDYDISIVELSEDISETGYVRPVCLPNPEQWLEPDTYCYITGWGHMGNKMPFKLQEGEVRIISLEHCQSYFDMKTITTRMICAGYESGTVDSCMGDSGGPLVCEKPGGRWTLFGLTSWGSVCFSKVLGPGVYSNVSYFVEWIKRQIYIQTFLLN
B4: corin: N1022Q (protein)
parent chain: MKQSPALAPEERCRRAGSPKPVLRADDNNMGNGCSQKLATANLLRFLLLVLIPCICALVLLLVILLSYVGTLQKVYFKSNGSEPLVTDGEIQGSDVILTNTIYNQSTVVSTAHPDQHVPAWTTDASLPGDQSHRNTSACMNITHSQCQMLPYHATLTPLLSVVRNMEMEKFLKFFTYLHRLSCYQHIMLFGCTLAFPECIIDGDDSHGLLPCRSFCEAAKEGCESVLGMVNYSWPDFLRCSQFRNQTESSNVSRICFSPQQENGKQLLCGRGENFLCASGICIPGKLQCNGYNDCDDWSDEAHCNCSENLFHCHTGKCLNYSLVCDGYDDCGDLSDEQNCDCNPTTEHRCGDGRCIAMEWVCDGDHDCVDKSDEVNCSCHSQGLVECRNGQCIPSTFQCDGDEDCKDGSDEENCSVIQTSCQEGDQRCLYNPCLDSCGGSSLCDPNNSLNNCSQCEPITLELCMNLPYNSTSYPNYFGHRTQKEASISWESSLFPALVQTNCYKYLMFFSCTILVPKCDVNTGEHIPPCRALCEHSKERCESVLGIVGLQWPEDTDCSQFPEENSDNQTCLMPDEYVEECSPSHFKCRSGQCVLASRRCDGQADCDDDSDEENCGCKERDLWECPSNKQCLKHTVICDGFPDCPDYMDEKNCSFCQDDELECANHACVSRDLWCDGEADCSDSSDEWDCVTLSINVNSSSFLMVHRAATEHHVCADGWQEILSQLACKQMGLGEPSVTKLIQEQEKEPRWLTLHSNWESLNGTTLHELLVNGQSCESRSKISLLCTKQDCGRRPAARMNKRILGGRTSRPGRWPWQCSLQSEPSGHICGCVLIAKKWVLTVAHCFEGRENAAVWKVVLGINNLDHPSVFMQTRFVKTIILHPRYSRAVVDYDISIVELSEDISETGYVRPVCLPNPEQWLEPDTYCYITGWGHMGNKMPFKLQEGEVRIISLEHCQSYFDMKTITTRMICAGYESGTVDSCMGDSGGPLVCEKPGGRWTLFGLTSWGSVCFSKVLGPGVYSNVSYFVEWIKRQIYIQTFLLN
B5: corin: N651Q (protein)
parent chain: MKQSPALAPEERCRRAGSPKPVLRADDNNMGNGCSQKLATANLLRFLLLVLIPCICALVLLLVILLSYVGTLQKVYFKSNGSEPLVTDGEIQGSDVILTNTIYNQSTVVSTAHPDQHVPAWTTDASLPGDQSHRNTSACMNITHSQCQMLPYHATLTPLLSVVRNMEMEKFLKFFTYLHRLSCYQHIMLFGCTLAFPECIIDGDDSHGLLPCRSFCEAAKEGCESVLGMVNYSWPDFLRCSQFRNQTESSNVSRICFSPQQENGKQLLCGRGENFLCASGICIPGKLQCNGYNDCDDWSDEAHCNCSENLFHCHTGKCLNYSLVCDGYDDCGDLSDEQNCDCNPTTEHRCGDGRCIAMEWVCDGDHDCVDKSDEVNCSCHSQGLVECRNGQCIPSTFQCDGDEDCKDGSDEENCSVIQTSCQEGDQRCLYNPCLDSCGGSSLCDPNNSLNNCSQCEPITLELCMNLPYNSTSYPNYFGHRTQKEASISWESSLFPALVQTNCYKYLMFFSCTILVPKCDVNTGEHIPPCRALCEHSKERCESVLGIVGLQWPEDTDCSQFPEENSDNQTCLMPDEYVEECSPSHFKCRSGQCVLASRRCDGQADCDDDSDEENCGCKERDLWECPSNKQCLKHTVICDGFPDCPDYMDEKNCSFCQDDELECANHACVSRDLWCDGEADCSDSSDEWDCVTLSINVNSSSFLMVHRAATEHHVCADGWQEILSQLACKQMGLGEPSVTKLIQEQEKEPRWLTLHSNWESLNGTTLHELLVNGQSCESRSKISLLCTKQDCGRRPAARMNKRILGGRTSRPGRWPWQCSLQSEPSGHICGCVLIAKKWVLTVAHCFEGRENAAVWKVVLGINNLDHPSVFMQTRFVKTIILHPRYSRAVVDYDISIVELSEDISETGYVRPVCLPNPEQWLEPDTYCYITGWGHMGNKMPFKLQEGEVRIISLEHCQSYFDMKTITTRMICAGYESGTVDSCMGDSGGPLVCEKPGGRWTLFGLTSWGSVCFSKVLGPGVYSNVSYFVEWIKRQIYIQTFLLN

This note sets out measurements from publication PMC7605860.

The nature of the data set: immunostaining, confocal microscopy, FBL/FTotal ratio in polarized MDCK cells. Conditions: glycan lost; control: corin WT.
Take B1: the localisation_or_trafficking result is listed as “no change”. To B2 belongs “no change”. Then B3, with “no change”; and B4, with “no change”; and B5, with “no change”.
